Results from patent publication US20180346600A1 (AJOU UNIVERSITY INDUSTRY ACADEMIC COOPERATION FOUNDATION, published 2018).
Values belong to the binder of their own block, whether it stands above or below them.

Legend:
Test in all cases: flow cytometry of diploid yeast: MFI of Flag-tagged secreted FcCH3B held on displayed FcCH3A (anti-Flag mouse mAb and PE anti-mouse antibody), normalised to EW-RVT = 100 %
[1] = biological target: T1, displayed FcCH3A, A107 (K370E/K409W), on yeast cell surface (human, UniProt P0DOX5 227-449 = IgG part)
T1 construct: also called A107 CH3A chain (yeast)
T1 Fc: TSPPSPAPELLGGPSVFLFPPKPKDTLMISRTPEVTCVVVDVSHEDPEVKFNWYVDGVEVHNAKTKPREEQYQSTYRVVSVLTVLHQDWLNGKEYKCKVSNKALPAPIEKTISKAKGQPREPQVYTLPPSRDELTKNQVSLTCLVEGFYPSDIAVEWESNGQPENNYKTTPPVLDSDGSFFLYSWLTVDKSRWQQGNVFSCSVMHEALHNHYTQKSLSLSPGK

[2] = biological target: T2, displayed FcCH3A, A109 (K370M/K409W), on yeast cell surface (human, UniProt P0DOX5 227-449 = IgG part)
T2 construct: also called A109 CH3A chain (yeast)
T2 Fc: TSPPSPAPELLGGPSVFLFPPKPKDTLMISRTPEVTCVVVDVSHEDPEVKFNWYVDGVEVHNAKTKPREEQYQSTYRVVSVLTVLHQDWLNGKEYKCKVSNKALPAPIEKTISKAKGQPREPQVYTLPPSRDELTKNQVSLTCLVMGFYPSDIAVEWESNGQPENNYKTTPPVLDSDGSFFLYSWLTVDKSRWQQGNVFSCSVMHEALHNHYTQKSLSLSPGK

[3] = biological target: T3, displayed FcCH3A, B121 (D399E/K409W), on yeast cell surface (human, UniProt P0DOX5 227-449 = IgG part)
T3 construct: also called B121 CH3A chain (yeast)
T3 Fc: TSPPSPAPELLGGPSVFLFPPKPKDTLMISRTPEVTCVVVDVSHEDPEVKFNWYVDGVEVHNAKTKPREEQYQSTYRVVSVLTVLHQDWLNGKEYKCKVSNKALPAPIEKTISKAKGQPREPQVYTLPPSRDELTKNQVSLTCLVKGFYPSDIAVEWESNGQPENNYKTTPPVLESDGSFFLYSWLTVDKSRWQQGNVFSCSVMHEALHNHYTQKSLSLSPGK

[4] = biological target: T4, displayed FcCH3A, B168 (D399L/K409W), on yeast cell surface (human, UniProt P0DOX5 227-449 = IgG part)
T4 construct: also called B168 CH3A chain (yeast)
T4 Fc: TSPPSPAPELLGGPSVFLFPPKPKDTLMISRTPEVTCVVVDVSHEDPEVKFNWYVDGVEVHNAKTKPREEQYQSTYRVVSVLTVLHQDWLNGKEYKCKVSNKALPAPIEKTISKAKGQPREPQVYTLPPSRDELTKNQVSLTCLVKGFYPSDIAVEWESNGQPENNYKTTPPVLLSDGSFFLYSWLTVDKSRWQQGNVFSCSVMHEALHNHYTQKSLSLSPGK

[5] = biological target: T5, A107w/oW-VT (displayed FcCH3A on yeast cell surface)
T5 construct: also called A107w/oW-VT CH3A chain (yeast), K370E
T5 Fc: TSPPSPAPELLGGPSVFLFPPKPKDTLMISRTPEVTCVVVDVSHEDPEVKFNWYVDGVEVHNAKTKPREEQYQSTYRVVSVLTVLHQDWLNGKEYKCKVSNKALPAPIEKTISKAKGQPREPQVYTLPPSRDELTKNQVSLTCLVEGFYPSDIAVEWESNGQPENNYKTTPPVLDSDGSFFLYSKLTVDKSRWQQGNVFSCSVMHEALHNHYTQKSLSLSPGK
Source text: (§1) FACS was sequentially performed four times. […] Table 9 below summarizes the mutation pairs introduced into individual clones selected from the respective LibA2 and LibB2 libraries.

[6] = biological target: T6, displayed FcCH3A, A108 (K370E/K409W), on yeast cell surface (human, UniProt P0DOX5 227-449 = IgG part)
T6 construct: also called A108 CH3A chain (yeast)
T6 Fc: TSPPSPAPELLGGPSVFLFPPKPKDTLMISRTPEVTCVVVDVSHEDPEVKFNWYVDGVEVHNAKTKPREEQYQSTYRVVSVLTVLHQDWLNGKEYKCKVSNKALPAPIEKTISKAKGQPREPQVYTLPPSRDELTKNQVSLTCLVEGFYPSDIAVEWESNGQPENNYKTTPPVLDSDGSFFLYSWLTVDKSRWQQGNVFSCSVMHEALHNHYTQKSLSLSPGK

[7] = biological target: T7, displayed FcCH3A, A146 (K370D/K409W), on yeast cell surface (human, UniProt P0DOX5 227-449 = IgG part)
T7 construct: also called A146 CH3A chain (yeast)
T7 Fc: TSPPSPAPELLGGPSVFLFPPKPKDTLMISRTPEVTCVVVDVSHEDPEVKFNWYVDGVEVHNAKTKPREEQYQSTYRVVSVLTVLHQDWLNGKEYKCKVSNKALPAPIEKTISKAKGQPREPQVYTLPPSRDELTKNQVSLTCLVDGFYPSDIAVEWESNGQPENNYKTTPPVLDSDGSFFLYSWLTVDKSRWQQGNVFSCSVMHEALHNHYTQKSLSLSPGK

[8] = biological target: T8, displayed FcCH3A, A205 (E357D/S364W/K370E), on yeast cell surface (human, UniProt P0DOX5 227-449 = IgG part)
T8 construct: also called A205 CH3A chain (yeast)
T8 Fc: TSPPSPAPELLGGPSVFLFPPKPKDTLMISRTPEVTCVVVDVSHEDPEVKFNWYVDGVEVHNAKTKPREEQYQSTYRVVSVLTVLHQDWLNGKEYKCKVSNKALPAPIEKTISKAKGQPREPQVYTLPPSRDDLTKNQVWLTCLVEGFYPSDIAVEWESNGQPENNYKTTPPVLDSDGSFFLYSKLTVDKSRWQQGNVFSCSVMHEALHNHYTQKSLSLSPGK
Source text: as §1

[9] = biological target: T9, displayed FcCH3A, B135 (D399L/K409W), on yeast cell surface (human, UniProt P0DOX5 227-449 = IgG part)
T9 construct: also called B135 CH3A chain (yeast)
T9 Fc: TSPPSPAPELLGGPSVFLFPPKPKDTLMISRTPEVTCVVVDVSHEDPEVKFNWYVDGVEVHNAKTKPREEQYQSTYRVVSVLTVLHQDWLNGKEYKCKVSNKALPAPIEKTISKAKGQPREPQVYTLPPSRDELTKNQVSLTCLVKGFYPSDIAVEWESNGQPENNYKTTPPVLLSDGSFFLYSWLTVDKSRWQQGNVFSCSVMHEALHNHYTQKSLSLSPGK

B1: secreted FcCH3B, A107 (E357N/D399V/F405T), from yeast (other)
chain: TSPPSPAPELLGGPSVFLFPPKPKDTLMISRTPEVTCVVVDVSHEDPEVKFNWYVDGVEVHNAKTKPREEQYQSTYRVVSVLTVLHQDWLNGKEYKCKVSNKALPAPIEKTISKAKGQPREPQVYTLPPSRDNLTKNQVSLTCLVKGFYPSDIAVEWESNGQPENNYKTTPPVLVSDGSFTLYSKLTVDKSRWQQGNVFSCSVMHEALHNHYTQKSLSLSPGK
notes: also called A107 CH3B chain (yeast); not shown: flag-tag
- binding result [1]: binds

B2: secreted FcCH3B, A109 (E357M/S364W/D399V/F405T), from yeast (other)
chain: TSPPSPAPELLGGPSVFLFPPKPKDTLMISRTPEVTCVVVDVSHEDPEVKFNWYVDGVEVHNAKTKPREEQYQSTYRVVSVLTVLHQDWLNGKEYKCKVSNKALPAPIEKTISKAKGQPREPQVYTLPPSRDMLTKNQVWLTCLVKGFYPSDIAVEWESNGQPENNYKTTPPVLVSDGSFTLYSKLTVDKSRWQQGNVFSCSVMHEALHNHYTQKSLSLSPGK
notes: also called A109 CH3B chain (yeast); not shown: flag-tag
- binding result [2]: binds

B3: secreted FcCH3B, B121 (K392E/D399V/F405T), from yeast (other)
chain: TSPPSPAPELLGGPSVFLFPPKPKDTLMISRTPEVTCVVVDVSHEDPEVKFNWYVDGVEVHNAKTKPREEQYQSTYRVVSVLTVLHQDWLNGKEYKCKVSNKALPAPIEKTISKAKGQPREPQVYTLPPSRDELTKNQVSLTCLVKGFYPSDIAVEWESNGQPENNYETTPPVLVSDGSFTLYSKLTVDKSRWQQGNVFSCSVMHEALHNHYTQKSLSLSPGK
notes: also called B121 CH3B chain (yeast); not shown: flag-tag
- binding result [3]: binds

B4: secreted FcCH3B, B168 (K392G/K409M/D399V/F405T), from yeast (other)
chain: TSPPSPAPELLGGPSVFLFPPKPKDTLMISRTPEVTCVVVDVSHEDPEVKFNWYVDGVEVHNAKTKPREEQYQSTYRVVSVLTVLHQDWLNGKEYKCKVSNKALPAPIEKTISKAKGQPREPQVYTLPPSRDELTKNQVSLTCLVKGFYPSDIAVEWESNGQPENNYGTTPPVLVSDGSFTLYSMLTVDKSRWQQGNVFSCSVMHEALHNHYTQKSLSLSPGK
notes: also called B168 CH3B chain (yeast); not shown: flag-tag
- binding result [4]: binds

B5: A107w/oW-VT (secreted FcCH3B from yeast) (other)
secreted Fc chain (hinge-CH2-CH3B): TSPPSPAPELLGGPSVFLFPPKPKDTLMISRTPEVTCVVVDVSHEDPEVKFNWYVDGVEVHNAKTKPREEQYQSTYRVVSVLTVLHQDWLNGKEYKCKVSNKALPAPIEKTISKAKGQPREPQVYTLPPSRDNLTKNQVSLTCLVKGFYPSDIAVEWESNGQPENNYKTTPPVLDSDGSFFLYSKLTVDKSRWQQGNVFSCSVMHEALHNHYTQKSLSLSPGK
notes: also called A107w/oW-VT CH3B chain (yeast), E357N
- binding result [5]: binds

Continued, values first:

- binding result [6]: binds
B6: secreted FcCH3B, A108 (E357I/S364T/D399V/F405T), from yeast (other)
chain: TSPPSPAPELLGGPSVFLFPPKPKDTLMISRTPEVTCVVVDVSHEDPEVKFNWYVDGVEVHNAKTKPREEQYQSTYRVVSVLTVLHQDWLNGKEYKCKVSNKALPAPIEKTISKAKGQPREPQVYTLPPSRDILTKNQVTLTCLVKGFYPSDIAVEWESNGQPENNYKTTPPVLVSDGSFTLYSKLTVDKSRWQQGNVFSCSVMHEALHNHYTQKSLSLSPGK
notes: also called A108 CH3B chain (yeast); not shown: flag-tag

- binding result [7]: binds
B7: secreted FcCH3B, A146 (E357M/D399V/F405T), from yeast (other)
chain: TSPPSPAPELLGGPSVFLFPPKPKDTLMISRTPEVTCVVVDVSHEDPEVKFNWYVDGVEVHNAKTKPREEQYQSTYRVVSVLTVLHQDWLNGKEYKCKVSNKALPAPIEKTISKAKGQPREPQVYTLPPSRDMLTKNQVSLTCLVKGFYPSDIAVEWESNGQPENNYKTTPPVLVSDGSFTLYSKLTVDKSRWQQGNVFSCSVMHEALHNHYTQKSLSLSPGK
notes: also called A146 CH3B chain (yeast); not shown: flag-tag

- binding result [8]: binds
B8: secreted FcCH3B, A205 (E357N/K370R), from yeast (other)
chain: TSPPSPAPELLGGPSVFLFPPKPKDTLMISRTPEVTCVVVDVSHEDPEVKFNWYVDGVEVHNAKTKPREEQYQSTYRVVSVLTVLHQDWLNGKEYKCKVSNKALPAPIEKTISKAKGQPREPQVYTLPPSRDNLTKNQVSLTCLVRGFYPSDIAVEWESNGQPENNYKTTPPVLDSDGSFFLYSKLTVDKSRWQQGNVFSCSVMHEALHNHYTQKSLSLSPGK
notes: also called A205 CH3B chain (yeast); not shown: flag-tag

- binding result [9]: binds
B9: secreted FcCH3B, B135 (K392S/K409L/D399V/F405T), from yeast (other)
chain: TSPPSPAPELLGGPSVFLFPPKPKDTLMISRTPEVTCVVVDVSHEDPEVKFNWYVDGVEVHNAKTKPREEQYQSTYRVVSVLTVLHQDWLNGKEYKCKVSNKALPAPIEKTISKAKGQPREPQVYTLPPSRDELTKNQVSLTCLVKGFYPSDIAVEWESNGQPENNYSTTPPVLVSDGSFTLYSLLTVDKSRWQQGNVFSCSVMHEALHNHYTQKSLSLSPGK
notes: also called B135 CH3B chain (yeast); not shown: flag-tag
